Reference: US20160347859A1 (KATHOLIEKE UNIVERSITEIT LEUVEN, published 2016)

How the values were obtained:
mouse TAFI = target: T1, mouse TAFI (mouse, UniProt Q9JHH6 22-422); experiment: sandwich ELISA: plate coated with recombinant mouse PAI-1, diabody, mouse TAFI, HRP-conjugated MA-TCK32G12
T1 construct: also called Carboxypeptidase B2 (CPB2)
T1 sequence (looked up): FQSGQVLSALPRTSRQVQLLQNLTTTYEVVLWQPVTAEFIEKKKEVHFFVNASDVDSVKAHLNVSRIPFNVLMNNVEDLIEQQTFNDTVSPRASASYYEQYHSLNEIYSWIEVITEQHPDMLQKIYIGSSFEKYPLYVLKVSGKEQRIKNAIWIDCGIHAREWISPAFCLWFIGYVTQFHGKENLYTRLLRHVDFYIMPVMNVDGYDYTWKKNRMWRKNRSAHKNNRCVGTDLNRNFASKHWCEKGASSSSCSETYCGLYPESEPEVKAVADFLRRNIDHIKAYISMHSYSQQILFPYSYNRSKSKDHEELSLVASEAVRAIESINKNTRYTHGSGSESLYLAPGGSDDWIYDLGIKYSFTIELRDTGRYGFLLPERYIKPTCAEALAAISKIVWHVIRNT
Description: (§1) Db-TCK26D6x33H1F7 (0.8 mg/kg) was administered IV via tail vein injection in mice (n=6). Prior to the experiment, blood was withdrawn on 0.38% trisodium citrate (=pre-sample). Post injection, blood was withdrawn on 0.38% trisodium citrate at several time points: 5 min, 45 min, 3 hours, 6 hours and 24 hours. Diabody concentrations in corresponding plasma samples were determined by an ELISA based on the simultaneous binding of the diabody towards PAI-1 and TAFI. Wells of polystyrene microtiter plates were incubated with 200 μl recombinant mouse PAI-1 in PBS (pH 7.4; 4 μg/ml) for 72 hours at 4° C., emptied and treated for two hours with PBS supplemented with 1% (m/v) bovine serum albumin. After washing, serial two-fold dilutions (180 μl) of plasma samples were added to the wells and incubated overnight at 4° C. Then, the wells were washed and incubated with 170 μl mouse TAFI (0.1 μg/ml) for 2 hours at room temperature. Subsequently, plates were washed and 160 μl HRP-conjugated MA-TCK32G12 (directed against TAFI) was added to the wells followed by incubation for 2 hours at room temperature. All washing steps were performed with PBS containing Tween 80 (0.002%) and dilutions were made in PBS containing Tween 80 (0.002%) and bovine serum albumin (0.1% m/v). […] The absorbance was measured at 492 nm. […]

mouse PAI-1 = target: T2, mouse PAI-1 (mouse, UniProt P22777 23-402); experiment: as above
T2 construct: also called recombinant mouse PAI-1
T2 sequence (looked up): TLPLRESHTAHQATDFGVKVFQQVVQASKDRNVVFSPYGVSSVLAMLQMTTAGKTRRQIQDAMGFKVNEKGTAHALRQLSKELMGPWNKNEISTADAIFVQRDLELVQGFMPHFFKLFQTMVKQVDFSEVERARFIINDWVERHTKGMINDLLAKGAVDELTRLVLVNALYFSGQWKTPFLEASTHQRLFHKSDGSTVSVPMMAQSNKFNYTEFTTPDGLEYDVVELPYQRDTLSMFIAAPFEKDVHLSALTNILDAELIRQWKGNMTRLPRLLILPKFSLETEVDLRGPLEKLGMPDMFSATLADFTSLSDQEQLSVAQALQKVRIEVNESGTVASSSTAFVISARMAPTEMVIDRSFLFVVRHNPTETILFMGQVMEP
Description: as §1

- binding result (mouse TAFI): binds
- binding result (mouse PAI-1): binds
B1: Db-TCK26D6x33H1F7 (bispecific antibody)
chain 1: QVQLQQSGPELVKPGASVKISCKASGYTFTDNNMDWAKQSHGKSLEWIGSIYSNNGGTIYNQKFKGKATLNVDTSSSTAYMELRSLTSEDTAVYYCAREMSDGPYWFFDVWGTGTTVTVSGAKTTPKLGGDIQMTQSPSSLSASLGDRVTISCRASQDISNFLDWYQQKPDGTVKLLIYYTSRLHSGVPSRFSGSGSGTDYSLTISKLEQEDIATYFCQQGNTFPPTFGGGTKLEIKRADAAAAGSEQKLISEEDLNSHHHHHH
chain 2: QVQLQQSGAEVVKPGASVKLACTASGFNIKDTYIHWVKQGPEQGLEWIGRIDPANGNTKYDSKFQDKATITADTSSNTAYLHLSSLTSEDTAVYYCVRGDYDYVYFDYWGQGTTVTVSSAKTTPKLGGDIQMTQSPASLSVSVGETVTITCRASENIFRNLVWYQQKQGKSPQLLVYSATNLVDGVPSRFSGSGSGTQYSLKINSLQSEDFGSYYCQHFWGTPRTFGGGTKLEIKRADTAPTGSEQKLISEEDLNSHHHHHH
notes: also called diabody
